In data set [1] the target is Multidrug resistance-associated protein 1 (Homo sapiens, UniProt P33527). Kind of data set: TP_TRANSPORTER: transepithelial transport (basal to apical) in MRP1-expressing MDCKII cells. Type of data set: functional, cell-based. The note with it: dog, mdck-ii.
Data set [2] deals with COc1cc([C@@H]2c3cc4c(cc3[C@@H](O[C@@H]3O[C@@H]5CO[C@@H](C)O[C@H]5[C@H](O)[C@H]3O)[C@H]3COC(=O)[C@H]23)OCO4)cc(OC)c1O. Kind of data set: TP_TRANSPORTER: transepithelial transport (basal to apical) in MDR1-expressing MDCKII cells. Type of data set: functional, cell-based, MDCK-II.
Substrate in data set [3]: COc1cc([C@@H]2c3cc4c(cc3[C@@H](O[C@@H]3O[C@@H]5CO[C@@H](C)O[C@H]5[C@H](O)[C@H]3O)[C@H]3COC(=O)[C@H]23)OCO4)cc(OC)c1O
Kind of data set: TP_TRANSPORTER: transepithelial transport (basal to apical) in MRP2-expressing MDCKII cells. Type of data set: functional, cell-based, MDCK-II.

Chain of Multidrug resistance-associated protein 1 (P33527 whole entry): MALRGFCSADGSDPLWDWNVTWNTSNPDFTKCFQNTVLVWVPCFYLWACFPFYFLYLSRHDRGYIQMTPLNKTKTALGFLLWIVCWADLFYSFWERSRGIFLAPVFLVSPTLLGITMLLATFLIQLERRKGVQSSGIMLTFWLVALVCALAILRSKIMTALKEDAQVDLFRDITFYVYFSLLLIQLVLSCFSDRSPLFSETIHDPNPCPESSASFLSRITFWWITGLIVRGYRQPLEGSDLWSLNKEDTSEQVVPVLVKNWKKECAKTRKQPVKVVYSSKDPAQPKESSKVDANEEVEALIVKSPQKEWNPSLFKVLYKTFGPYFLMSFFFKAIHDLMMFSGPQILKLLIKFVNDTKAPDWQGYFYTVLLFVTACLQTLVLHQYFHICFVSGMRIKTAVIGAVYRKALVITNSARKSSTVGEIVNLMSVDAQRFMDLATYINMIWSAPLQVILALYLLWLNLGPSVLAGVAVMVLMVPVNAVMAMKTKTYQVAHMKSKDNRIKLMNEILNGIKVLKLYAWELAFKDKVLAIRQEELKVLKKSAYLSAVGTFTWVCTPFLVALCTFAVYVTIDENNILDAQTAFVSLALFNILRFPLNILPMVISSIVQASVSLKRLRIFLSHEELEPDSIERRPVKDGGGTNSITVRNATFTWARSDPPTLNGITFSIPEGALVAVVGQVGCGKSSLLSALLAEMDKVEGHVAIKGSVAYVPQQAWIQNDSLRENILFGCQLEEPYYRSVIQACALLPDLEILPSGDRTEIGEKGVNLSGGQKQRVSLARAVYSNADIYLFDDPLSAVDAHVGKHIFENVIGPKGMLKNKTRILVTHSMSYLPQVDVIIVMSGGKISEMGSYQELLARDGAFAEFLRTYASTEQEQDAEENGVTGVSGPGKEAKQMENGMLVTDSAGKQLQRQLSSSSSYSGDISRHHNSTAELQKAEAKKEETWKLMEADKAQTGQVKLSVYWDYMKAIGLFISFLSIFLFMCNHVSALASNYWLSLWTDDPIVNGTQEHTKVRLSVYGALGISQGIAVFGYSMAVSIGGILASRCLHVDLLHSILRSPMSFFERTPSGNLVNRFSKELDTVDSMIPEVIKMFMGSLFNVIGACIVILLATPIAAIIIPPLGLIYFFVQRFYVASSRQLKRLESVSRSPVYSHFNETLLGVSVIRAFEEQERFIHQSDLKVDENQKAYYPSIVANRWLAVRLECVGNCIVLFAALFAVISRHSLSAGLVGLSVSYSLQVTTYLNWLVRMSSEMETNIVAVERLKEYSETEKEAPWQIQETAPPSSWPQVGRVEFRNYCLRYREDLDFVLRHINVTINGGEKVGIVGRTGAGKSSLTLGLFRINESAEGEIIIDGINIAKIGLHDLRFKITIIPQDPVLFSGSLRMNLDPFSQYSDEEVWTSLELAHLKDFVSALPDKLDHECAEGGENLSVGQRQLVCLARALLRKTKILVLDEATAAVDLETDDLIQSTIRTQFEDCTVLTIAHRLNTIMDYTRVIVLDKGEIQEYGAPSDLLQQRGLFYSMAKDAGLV

On to `COc1cc([C@@H]2c3cc4c(cc3[C@@H](O[C@@H]3O[C@@H]5CO[C@@H](C)O[C@H]5[C@H](O)[C@H]3O)[C@H]3COC(=O)[C@H]23)OCO4)cc(OC)c1O` [ETOPOSIDE], for which the Activity result in data set [1] was “is not a substrate [-]”.

In the case of “ATP-dependent translocase ABCB1 (Homo sapiens)”, the Km in data set [2] worked out at 255 µM.

B1: ATP-binding cassette sub-family C member 2 (Homo sapiens) (protein)
chain: MLEKFCNSTFWNSSFLDSPEADLPLCFEQTVLVWIPLGYLWLLAPWQLLHVYKSRTKRSSTTKLYLAKQVFVGFLLILAAIELALVLTEDSGQATVPAVRYTNPSLYLGTWLLVLLIQYSRQWCVQKNSWFLSLFWILSILCGTFQFQTLIRTLLQGDNSNLAYSCLFFISYGFQILILIFSAFSENNESSNNPSSIASFLSSITYSWYDSIILKGYKRPLTLEDVWEVDEEMKTKTLVSKFETHMKRELQKARRALQRRQEKSSQQNSGARLPGLNKNQSQSQDALVLEDVEKKKKKSGTKKDVPKSWLMKALFKTFYMVLLKSFLLKLVNDIFTFVSPQLLKLLISFASDRDTYLWIGYLCAILLFTAALIQSFCLQCYFQLCFKLGVKVRTAIMASVYKKALTLSNLARKEYTVGETVNLMSVDAQKLMDVTNFMHMLWSSVLQIVLSIFFLWRELGPSVLAGVGVMVLVIPINAILSTKSKTIQVKNMKNKDKRLKIMNEILSGIKILKYFAWEPSFRDQVQNLRKKELKNLLAFSQLQCVVIFVFQLTPVLVSVVTFSVYVLVDSNNILDAQKAFTSITLFNILRFPLSMLPMMISSMLQASVSTERLEKYLGGDDLDTSAIRHDCNFDKAMQFSEASFTWEHDSEATVRDVNLDIMAGQLVAVIGPVGSGKSSLISAMLGEMENVHGHITIKGTTAYVPQQSWIQNGTIKDNILFGTEFNEKRYQQVLEACALLPDLEMLPGGDLAEIGEKGINLSGGQKQRISLARATYQNLDIYLLDDPLSAVDAHVGKHIFNKVLGPNGLLKGKTRLLVTHSMHFLPQVDEIVVLGNGTIVEKGSYSALLAKKGEFAKNLKTFLRHTGPEEEATVHDGSEEEDDDYGLISSVEEIPEDAASITMRRENSFRRTLSRSSRSNGRHLKSLRNSLKTRNVNSLKEDEELVKGQKLIKKEFIETGKVKFSIYLEYLQAIGLFSIFFIILAFVMNSVAFIGSNLWLSAWTSDSKIFNSTDYPASQRDMRVGVYGALGLAQGIFVFIAHFWSAFGFVHASNILHKQLLNNILRAPMRFFDTTPTGRIVNRFAGDISTVDDTLPQSLRSWITCFLGIISTLVMICMATPVFTIIVIPLGIIYVSVQMFYVSTSRQLRRLDSVTRSPIYSHFSETVSGLPVIRAFEHQQRFLKHNEVRIDTNQKCVFSWITSNRWLAIRLELVGNLTVFFSALMMVIYRDTLSGDTVGFVLSNALNITQTLNWLVRMTSEIETNIVAVERITEYTKVENEAPWVTDKRPPPDWPSKGKIQFNNYQVRYRPELDLVLRGITCDIGSMEKIGVVGRTGAGKSSLTNCLFRILEAAGGQIIIDGVDIASIGLHDLREKLTIIPQDPILFSGSLRMNLDPFNNYSDEEIWKALELAHLKSFVASLQLGLSHEVTEAGGNLSIGQRQLLCLGRALLRKSKILVLDEATAAVDLETDNLIQTTIQNEFAHCTVITIAHRLHTIMDSDKVMVLDNGKIIECGSPEELLQIPGPFYFMAKEAGIENVNSTKF
For the molecule B1, in data set [3], the Km worked out at 617 µM.

For orientation: Km means the concentration of substrate that gives half-maximal velocity.

These data come from ChEMBL document CHEMBL2074524, “Delineating the contribution of secretory transporters in the efflux of etoposide using Madin-Darby canine kidney (MDCK) cells overexpressing P-glycoprotein (Pgp), multidrug resistance-associated protein (MRP1), and canalicular multispecific organic anion transporter (cMOAT)” (Drug Metab Dispos, 2002).
